Consider 20 molecules from US20110286916A1 (published 2011).

Assay [1] has as its target T1, human full-length Notch3 with C-terminal FLAG tag, stably expressed on 293 FlpIn (TREx) cells (human, UniProt Q9UM47 40-2321).
T1 construct: whole, on cells; made by the same strategy as the Notch1 line; also called 293-N3; hN3
In words: FACS, phage scFv.

Assay [2] addresses T2, human full-length Notch1 with C-terminal FLAG tag, stably expressed on 293 FlpIn (TREx) cells (human, UniProt P46531 19-2555).
T2 construct: tetracycline/doxycycline-induced expression from pcDNA5/FRT/TO-HN1+FLAG; also called hN1; 293_N1
Description: FACS, phage scFv. In general terms: A flow cytometer gives signals particle by particle.

B1: N1wc535 (scFv, V domains shown)
VH: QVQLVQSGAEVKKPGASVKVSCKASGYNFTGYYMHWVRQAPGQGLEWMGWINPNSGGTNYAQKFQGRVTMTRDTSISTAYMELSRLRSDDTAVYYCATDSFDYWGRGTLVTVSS
VL: QSVLTQPPSASGTPGQRVTLSCSGSSSNIGSNTVNWYQQLPGTAPKVLIYSDNQRPSGVPDRFSGSKSGTSASLAISGLQSDDEAVYYCAGWDDSLNAYLFGTGTKVTVL
notes: phage scFv
In the case of B1, the binding result in assay [1] and in assay [2] was “binds” each time.

B2: N1wc170 (scFv, V domains shown)
VH: QVQLQQSGPEVKKPGASVKISCKTSGYTFSSFGISWVRQAPGQGPEWMGWVSPYSGDTDYAQKFRGRVTMTIDSSTDTAYVEMRSLRSDDTAIYYCANSPISDGSSSSYDNWGKGTLVTVSS
VL: SYELTQPPSVSVAPGQTARITCGGENIGTKSVHWYQQKSGQAPVLVIYEDKKRPSGIPDRFSGSSSGTMATLTITGAQVDDEADYYCYSADNTGDQRMFGGGTKLTVL
notes: phage scFv
As for B2, the binding result in assay [1] and in assay [2] was “binds” throughout.

B3: N1wc82 (scFv, V domains shown)
VH: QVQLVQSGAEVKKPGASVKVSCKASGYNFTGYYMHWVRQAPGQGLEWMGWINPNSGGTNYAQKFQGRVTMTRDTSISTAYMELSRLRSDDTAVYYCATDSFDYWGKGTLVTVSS
VL: QSVLTQPPSVSATPGQKVTISCSGSNSNIGNNYVSWYQQLPGTAPKLLIYDSDQRPAGIPDRFSGSKLGTSATLGITGLQTGDEADYYCATWDAGLSVLIFGGGTKLTVL
notes: phage scFv
For B3, the binding result in assay [1] and in assay [2] was “binds” throughout.

B4: N1wc127 (scFv, V domains shown)
VH: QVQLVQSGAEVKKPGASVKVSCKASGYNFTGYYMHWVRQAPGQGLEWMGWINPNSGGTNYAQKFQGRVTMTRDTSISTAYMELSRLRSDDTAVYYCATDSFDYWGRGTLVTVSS
VL: SYVLTQPPSTSGAPGQRVTISCSGSSSNIGSNGVNWYHHLPGTAPKLLIYSNFHRPSGVPDRFSGSKSGTSATLAISGLQSEDEADYYCAAWDDSLNDYVFGVGTKVTVL
notes: phage scFv
In the case of B4, the binding result in assay [1] and in assay [2] was “binds” each time.

B5: N1wc129 (scFv, V domains shown)
VH: QVQLVQSGAEVKKPGASVKVSCKASGYNFTGYYLHWVRQAPGQGLEWMGWIDPNSGGTDYAQQFQGRVTVTRDTSISTAYMELSGLRSDDTAVYYCASDSFDHWGQGTLVTVSS
VL: QSVLTQPPSASGTPGQRATISCSGSGSNIGRNAVNWFQQLPGAAPKLLIYSNIHRPSGVPDRISGSKSGTSATLAISGLQSEDEADYYCATWDDSLNDYVFGTGTKLTVL
notes: phage scFv
Regarding B5, the binding result in assay [1] and in assay [2] was “binds” in each case.

B6: N1wc132 (scFv, V domains shown)
VH: QVQLVQSGAEVKKPGASVKVSCKASGYNFTGYYLHWVRQAPGQGLEWMGWINPNSGGTDYAQKFQGRVTVTRDTSISTAYMELGGLRSDDTAVYYCVSDSFDHWGRGTLVTVSS
VL: QSVLTQPPSASGTPGQRVTISCSGSSSNIGSNPVNWYQQLPGSAPKLLVYSDDQRPSGVPDRFSGSKSGASASLAISGLQSEDESDYYCAAWDDSQNAVVFGGGTKVTVL
notes: phage scFv
Turning to B6, the binding result in assay [1] and in assay [2] was “binds” each time.

B7: N1wc319 (scFv, V domains shown)
VH: QVQLVQSGAEVEKPGASVKVSCKASGYNFTGYYMHWVRQAPGQGLEWMGWINPNSGGTNYAQKFQGRVTMTRDTSISTAYMELSRLRSDDTAVYYCATDSFDYWGRGTLVTVSS
VL: QSVLTQPPSSSGTPGQRVTISCSGSSSNIGSNSVNWYQQLPGAAPKLLIYSDNQRPSGVPDRFSASKSYTSASLAISGLQSGDEADYFCATWDDSLTGLVFGGGTKLTVL
notes: phage scFv
Regarding B7, the binding result in assay [1] and in assay [2] was “binds” throughout.

B8: N1wc177 (scFv, V domains shown)
VH: QVQLVQSGAEVKEPGSSVRVSCKSSGGTFSNYAISWVRQAPGQGLEWMGGIIPGFGKTNYAQKFQGRVTITADASTSTTYMELRTLRSGDTAVYYCARDRGPDIGVAHFDSWGKGTMVTVSS
VL: QAVLTQPSSASGTPGQRVIISCSGSSSNIGKYIVNWYQQLPGAAPKLLIYTYNERPSGVPARFSGSTSGTSASLAITGLQSEDEADYYCASWDDSLNVVVFGGGTKLTVL
notes: phage scFv
Turning to B8, the binding result in assay [1] and in assay [2] was “binds” throughout.

B9: N1wc150 (scFv, V domains shown)
VH: EVQLVQSGAEVKKPGASVKVSCKASGYNFTGYYMHWVRQAPGQGLEWMGWINPNSGGTNYAQKFQGRVTMTRDTSISTAYMELSRLRSDDTAVYYCATDSFDYWGRGTMVTVSS
VL: SYELTQPPSASGTPGQRVTISCSGSGSNIGKNTVNWYQQLPGAAPKLLIYSNNERPSGVPGRFSGSKSGTSASLAISGLQSEDETDYYCAAWDDSLNDMVFGGGTKVTVL
notes: phage scFv
B9: the binding result in assay [1] and in assay [2] was “binds” each time.

B10: N1wc295 (scFv, V domains shown)
VH: QVQLQQSGAEVKKPGASVKVSCKASGYNFTGYYMHWVRQAPGQGLEWMGWINPNSGGTNYAQNFQGRVTMTRDTSISTAYMELSRLRSDDTAVYYCATDSFDYWGRGTMVTVSS
VL: QSVLTQPPSASGTPGQRVTISCSGNRSNIGSNTVNWYQQLPGTAPKLLIYSNDQRPSGVPDRFSGSKSGTSASLTISGLQSDDEADFYCAAWDDNLNGYVFGSGTKVTVL
notes: phage scFv
Turning to B10, the binding result in assay [1] and in assay [2] was “binds” in each case.

B11: N1wc239 (scFv, V domains shown)
VH: EVQLVESGAEVKKPGASVKVSCKASGYNFTGYYIHWVRQAPGQGLEWMGWINPNSGGTNYAQKFQGRVIMTRDTSISTAYMELSRLRSDDTAVYYCATDSFDYWGKGTMVTVSS
VL: QSVLTQPPSASGTPGQRVAISCSGSHSNIRSNDVYWYQQFPGTAPKLLIYSNDQRPSGVSDRFAGSKSGTSASLAISGLRSEDESDYYCATWDDSLSGVVFGGGTKLTVL
notes: phage scFv
Regarding B11, the binding result in assay [1] and in assay [2] was “binds” throughout.

B12: N1wc289 (scFv, V domains shown)
VH: QVQLVQSGAEVKKPGTTVKISCKVSGYKFTDYYIHWVRQAPGKGLEWMGFVDPTDDETRFAEKFQGRLTMTADTSRDTASMELSSLRSEDTAVYYCIRGIAALADWGRGTMVTVSS
VL: QAVLTQPSSLSASPGASASLTCTLRSDINLETSRIYWFQQKPGSPPRYLLRYQSDSDNNLDSGVPSRFSGSKDASANAGILLISGVQSEDEADYHCMIWHSGGSVFGGGTKVTVL
notes: phage scFv
As to B12, the binding result in assay [1] and in assay [2] was “binds” each time.

B13: N1wc241 (scFv, V domains shown)
VH: EVQLVQSGAEVKKPGASVKVSCKTSGYTFNDYYHHWVRQAPGQGLEWMGWINPHTGVANYAEKYKGRLAMTGDTSISTIYMDLSSLISDDTAIYFCARERSEWRNTVSSPSEYFHHWGKGTLVTVSS
VL: QSVLTQPPSASGTPGQRVTISCSGSFSNIGSNNVYWYQQLAGTAPKLLIYRNNERPSGVPDRFSGSKSGTSASLAISGLRSEDEADYYCAVRDDSLSGHYVFGSGTKVTVL
notes: phage scFv
On to B13, for which the binding result in assay [1] and in assay [2] was “binds” each time.

B14: N1wc441 (scFv, V domains shown)
VH: QVQLVQSGAEVKKPGASVKVSCKAPGYSFTDYYLHWVRQAPGIGLEWVGWINPNNGGTNYAQKFRGRVTMTRDTAINTAYMDMRWLRSDDTAVYYCATDGPPGTGNAFDIWGRGTLVTVSS
VL: SYELTQPPSVSVSPGQTARITCSGDALPDKYVHWYQQKSGQAPVLVLFDDSKRPSGIPERFSGSSSGTVATLIISGAQVEDEGDFFCYSTDSSGNERVFGGGTKLTVL
notes: phage scFv
Turning to B14, the binding result in assay [1] and in assay [2] was “binds” each time.

B15: N1wc182 (scFv, V domains shown)
VH: QVQLVQSGPEVKKPGTSVKVSCKASGFTFTSSAVQWVRQARGQRLEWIGWIVVGSGNTNYAQKFQERVTITRDMSTSTAYMELSSLRSEDTAVYYCVADTVYWGQGTLVTVSS
VL: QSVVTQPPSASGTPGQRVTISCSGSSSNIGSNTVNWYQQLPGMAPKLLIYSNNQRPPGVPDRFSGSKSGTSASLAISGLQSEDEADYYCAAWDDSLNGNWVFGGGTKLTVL
notes: phage scFv
B15: the binding result in assay [1] and in assay [2] was “binds” in each case.

B16: N1wc281 (scFv, V domains shown)
VH: QVQLQESGAEVKKPGASVKVSCRASGYTFTTNSLHWVRQAPGQGLDWMGVINPRDGSATVAQKFQGRITMTSDTSTSTVFLALSSLTSDDTGVYFCARDGLDYRDTSRILAPTDVWGRGTLVTVSS
VL: QSVLTQPPSVSVSPGQTASITCSGDKLGDKYTFWYQQKPGQSPVLIIYQDTKRPSGIPERFSGSNSGNTATLTISGTQAMDEADYYCQAWDSNTDHVIFGGGTKLTVL
notes: phage scFv
Take B16: the binding result in assay [1] and in assay [2] was “binds” each time.

B17: N1wc125 (scFv, V domains shown)
VH: QVQLQQSGAEVKKPGAPLKVSCKTSGFTFTGYYIHWVRQAPGQGLEWMGRVDPYNGATNFAQKFQGRVTMTTDTSTSTTYMELMSLRSDDTAVYYCARGWELDSWGQGTLVTVSS
VL: QSVLTQPASVSGSPGQSITISCTGTSSDVGGYNYVSWYQQHPGKAPKLMIYEGSKRPSGVSNRFSGSKSGNTASLTISGLQAEDEADYYCSSYTTRSTRVFGGGTKLTVL
notes: phage scFv
For B17, the binding result in assay [1] and in assay [2] was “binds” throughout.

B18: N1wc164 (scFv, V domains shown)
VH: QVQLVQSGADVKKPGASVKISCKASGYTFTKYYMHWVRQAPGQGLEWMGIINPTNGYTSYAQKFQGRVTMTSDTSASTVSMELSSLRSEDTAVYYCTRSYSNYDSFDIWGRGTMVTVSS
VL: QAVLTQPSSVSGAPGQRITISCTGTSSNIGAGYDVEWYQHLPGTAPKLLIYRNSNRPSGVPDRFSASKSGTSASLVITGLQAEDEADYYCQSYDTRLSDSVIFGGGTKLTVL
notes: phage scFv
On to B18, for which the binding result in assay [1] and in assay [2] was “binds” in each case.

B19: N1wc113 (scFv, V domains shown)
VH: QMQLVQSGAEVKRPGASVNLSCKASGYSFSRYYIHWVRQAPGQGLELMGRINPGGGTTTYAQKFQGRVTLSRDTSTNTIFMELNGLTSEDTAMYYCARSNYDILAGYGPDAFDFWGQGTMVTVSS
VL: QAVLTQPSSVSGAPGQRVTISCTGSSSNIGAGNDVHWYRQFPGTAPKLLIYGNNKRPSGVSDRFSGSKSGTSASLAITGLQVEDEADYYCQSYDSSLGGSDVFGGGTKLTVL
notes: phage scFv
With B19, the binding result in assay [1] and in assay [2] was “binds” throughout.

B20: N1wc301 (scFv, V domains shown)
VH: QVQLQQSGAEVKKPGASVKVSCKASGYIFGTYAIHWVRQAPGQSLEWMGWINAGTGNTKYSQKFQGRVTITMDTSATTAYMELSSLRSGDTAVYYCTRGDYYDSRGYYNRFDYWGRGTLVTVSS
VL: QSVVTQPPSASGTPGQRVTISCSGSSSNIGKNNVYWYQQLPGAAPKLLIYRNHERASGVPDRFSGSKSGTSASLAISGLQSEDEADYYCAARDDSLNGYVFGTGTKVTVL
notes: phage scFv
Take B20: the binding result in assay [1] and in assay [2] was “binds” in each case.
